Experimental data published in patent US20180346538A1 (IMMATICS BIOTECHNOLOGIES, published 2018).

Biological target: T1, HLA-A*02:01 (human)
T1 construct: MHC monomer captured on streptavidin plates; also called peptide-receptive MHC molecules; MHC class I
Assay: UV-ligand exchange ELISA (anti-b2m), yield grade

| peptide exchange yield | Binder |
| --- | --- |
| 50 to 75% | SLLNQDLHWSL |
| 50 to 75% | GLLDLPFRVGV |
